Values belong to the binder of their own block, whether it stands above or below them.
Experiments:
hCD16A-158F-his protein = molecular target: T1, hCD16A-158F-his protein (human, UniProt P08637 17-208); assay: ELISA, plate-coated his-tagged antigen 2 ug/mL
T1 construct: Bought protein
Description: (§1) In order to determine the binding ability of the chimeric Abs to human CD16A protein, ELISA-based binding assay was performed as followed. […] The mixture was incubated for 1 hour at room temperature (RT). The primary antibody was recognized by a detective antibody against human IgG Fc which was conjugated with horseradish peroxidase (HRP) (Jackson Immuno, Cat. No. 109-035-008). Tetramethylbenzidine (TMB), a substrate of HRP, was added to the wells to visualize the binding signal. After sufficient color development, stop solution was added to the wells. The absorbance of the signal was detected at 450 nm with Envision multilabel plate readers (PerkinElemer). The graph and statistics analysis were generated with four-parameter nonlinear regression curve fit in Graphpad Prism 9 software.
(§2) In order to determine the cross reactivity of the chimeric Abs to cynomolgus CD16, ELISA binding assay was performed as described above. Recombinant cyno CD16 ECD his tag protein (cynoCD16-his, Acro Bio, Cat. No. FC6-C52H9) was used as the coating antigen at 2 μg/mL.

hCD16A-158V-his protein = molecular target: T2, hCD16A-158V-his protein (human, UniProt P08637 17-208); assay: ELISA, plate-coated his-tagged antigen 2 ug/mL
T2 construct: extracellular domain; Bought protein; also called human CD16A-158V-his; Human CD16A-158V (protein)
T2 sequence (P08637 17-208 F176V): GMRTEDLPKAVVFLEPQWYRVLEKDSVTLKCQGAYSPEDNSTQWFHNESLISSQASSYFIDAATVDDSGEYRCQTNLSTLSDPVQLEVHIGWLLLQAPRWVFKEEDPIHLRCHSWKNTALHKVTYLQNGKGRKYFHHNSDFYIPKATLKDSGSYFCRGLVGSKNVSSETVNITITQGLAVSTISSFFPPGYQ
Description: as §1, §2

[1] = molecular target: T3, Recombinant cyno CD16 ECD his tag protein (cynomolgus, UniProt Q8SPW2 17-208); assay: ELISA, plate-coated his-tagged antigen 2 ug/mL
T3 construct: extracellular domain; Bought protein; also called cynoCD16-his; cynomolgus CD16-his
T3 sequence (Q8SPW2 17-208): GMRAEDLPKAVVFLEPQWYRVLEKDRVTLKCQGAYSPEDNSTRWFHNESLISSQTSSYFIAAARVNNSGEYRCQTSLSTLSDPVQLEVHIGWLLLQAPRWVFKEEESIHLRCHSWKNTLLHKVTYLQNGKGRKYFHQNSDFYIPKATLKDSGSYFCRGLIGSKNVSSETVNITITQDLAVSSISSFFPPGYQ
Description: as §1, §2

[2] = molecular target: T4, human GPC3 on HepG2 cells (human, UniProt P51654 25-554); assay: flow cytometry, HepG2 cells (GPC3 positive), geometric mean
T4 construct: whole, on cells; also called GPC3-positive HepG2 cells
T4 sequence (P51654 25-554 limits assumed): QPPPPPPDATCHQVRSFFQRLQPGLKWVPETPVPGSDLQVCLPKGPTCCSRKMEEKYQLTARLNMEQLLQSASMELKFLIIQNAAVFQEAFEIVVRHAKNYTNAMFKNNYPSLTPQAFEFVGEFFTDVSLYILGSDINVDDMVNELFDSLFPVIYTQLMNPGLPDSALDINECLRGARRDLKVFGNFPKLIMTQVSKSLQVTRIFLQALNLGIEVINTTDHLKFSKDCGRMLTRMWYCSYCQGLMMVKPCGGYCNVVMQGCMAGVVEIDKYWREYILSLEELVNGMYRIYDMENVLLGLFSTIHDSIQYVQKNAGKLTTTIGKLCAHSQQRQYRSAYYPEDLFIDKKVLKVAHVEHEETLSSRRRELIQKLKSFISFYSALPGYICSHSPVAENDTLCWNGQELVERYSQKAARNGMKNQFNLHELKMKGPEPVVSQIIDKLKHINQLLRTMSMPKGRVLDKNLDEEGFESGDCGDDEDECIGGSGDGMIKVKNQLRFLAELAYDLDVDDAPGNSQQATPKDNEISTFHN

[3] = molecular target: T5, human CD16A-158V expressed on CHO-K1 cells (human, UniProt P08637 17-254); assay: flow cytometry, CHO-K1-hCD16A-158V cells, geometric mean
T5 construct: whole, on cells; also called hCD16A-158V; CHO-K1-hCD16A-158V
T5 sequence (P08637 17-254 F176V): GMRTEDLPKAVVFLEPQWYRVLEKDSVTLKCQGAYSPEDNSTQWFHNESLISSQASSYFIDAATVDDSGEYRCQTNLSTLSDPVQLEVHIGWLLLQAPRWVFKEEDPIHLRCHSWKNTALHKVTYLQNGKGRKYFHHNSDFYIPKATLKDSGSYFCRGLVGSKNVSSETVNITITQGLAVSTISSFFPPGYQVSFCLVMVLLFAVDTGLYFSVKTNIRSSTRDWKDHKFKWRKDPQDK
Description: In order to evaluate the binding activity of the chimeric mAbs to human CD16A expressed on cells, cell-based binding assay was employed as followed. […] The antibody dilutions were incubated with 1×10⁵ indicated cells in the 96-well microplate for one hour at 4° C. The antibodies binding to the antigen on the cell surface were detected with PE fluorophore-conjugated anti-human IgG Fc secondary antibodies (ThermoFisher scientific, Cat. No. 12-4998-82) at a dilution rate of 1:1000. Cells were analyzed by flow cytometer LSRFortessa Cell Analyzer (BD Biosciences). Data were analyzed with Flowjo 10.0 software. The graph and statistics analysis were generated with four-parameter nonlinear regression curve fit in Graphpad Prism 9 software.
The assay was performed following the protocol described above.

[4] = molecular target: T6, human CD16B-NA1 ECD his tag protein (human, UniProt O75015 17-200); assay: ELISA, hCD16B-NA1-his coated at 2 ug/mL, OD450
T6 construct: extracellular domain; Bought protein; also called hCD16B-NA1-his; hCD16B-NA1 protein
T6 sequence (O75015 other isoform, or with tags, fused parts or gaps limits assumed): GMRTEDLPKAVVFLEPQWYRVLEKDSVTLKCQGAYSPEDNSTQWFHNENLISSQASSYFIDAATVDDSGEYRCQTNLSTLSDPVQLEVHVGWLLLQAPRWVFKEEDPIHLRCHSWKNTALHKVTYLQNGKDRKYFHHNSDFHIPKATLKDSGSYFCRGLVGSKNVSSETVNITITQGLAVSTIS
Description: as §1
In order to determine the binding ability of the chimeric Abs to human CD16B protein, ELISA binding assay was performed as previously described. Three spliced isoforms of CD16B including human CD16B-NA1 ECD his tag protein (hCD16B-NA1-his, Acro Bio, Cat: No. CDB-H5227), human CD16B-NA2 ECD his tag protein (hCD16B-NA2-his, Acro Bio, Cat: No. CDB-H82Ea) and human CD16B-SH-his protein, were used as the coating antigens at 2 μg/mL.

[5] = molecular target: T7, human CD16A-158F expressed on CHO-K1 cells (human, UniProt P08637 17-254); assay: flow cytometry, CHO-K1-hCD16A-158F cells, geometric mean
T7 construct: whole, on cells
T7 sequence (P08637 17-254): as the sequence (P08637 17-254 F176V) above, with V160F counted along it

[6] = molecular target: T8, cynomolgus CD16 expressed on CHO-K1 cells (cynomolgus, UniProt Q8SPW2 17-254); assay: flow cytometry, CHO-K1-cyno CD16 cells, Alexa Fluor 647 anti-human IgG Fc, geometric mean
T8 construct: whole, on cells; also called cyno CD16; CHO-K1-cynoCD16
T8 sequence (Q8SPW2 17-254): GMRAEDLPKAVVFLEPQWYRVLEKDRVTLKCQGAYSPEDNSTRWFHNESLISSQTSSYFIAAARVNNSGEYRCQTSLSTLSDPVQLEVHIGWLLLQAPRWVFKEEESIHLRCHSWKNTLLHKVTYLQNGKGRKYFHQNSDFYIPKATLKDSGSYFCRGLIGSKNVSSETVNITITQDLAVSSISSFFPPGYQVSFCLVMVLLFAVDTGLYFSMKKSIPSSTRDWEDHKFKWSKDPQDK

[7] = molecular target: T7, human CD16A-158F expressed on CHO-K1 …; assay: flow cytometry, CHO-K1-hCD16A-158F cells, Alexa Fluor 647 anti-human IgG Fc, geometric mean

T1 sequence (P08637 17-208 limits assumed): as the sequence (P08637 17-208 F176V) above, with V160F counted along it

EC50 (hCD16A-158F-his protein): 0.33 nM
EC50 (hCD16A-158V-his protein): 0.1 nM
EC50 [1]: 0.68 nM
binding result [2]: no binding (tested: 100 nM)
EC50 (read off the curve) [3]: ~0.4 nM
binding result [4]: no binding (tested: 20 nM)
EC50 (read off the curve) [5]: ~0.5 nM
EC50 (read off the curve) [6]: ~1 nM
EC50 (read off the curve) [7]: ~0.4 nM
B1: 45H6E8-hIgG1 LALAPG (antibody)
heavy: EVQLQQSGAELVRSGASVKLSCTASGFNIKDYYMQWVKQRPEQGLEWIGWIDPENGDTEYAPKFQGKATMTADTSSNTAYLQLSSLTSEDTAVYYCTTGGNYVDWGQGTTLTVSSASTKGPSVFPLAPSSKSTSGGTAALGCLVKDYFPEPVTVSWNSGALTSGVHTFPAVLQSSGLYSLSSVVTVPSSSLGTQTYICNVNHKPSNTKVDKKVEPKSCDKTHTCPPCPAPEAAGGPSVFLFPPKPKDTLMISRTPEVTCVVVDVSHEDPEVKFNWYVDGVEVHNAKTKPREEQYNSTYRVVSVLTVLHQDWLNGKEYKCKVSNKALGAPIEKTISKAKGQPREPQVYTLPPSREEMTKNQVSLTCLVKGFYPSDIAVEWESNGQPENNYKTTPPVLDSDGSFFLYSKLTVDKSRWQQGNVFSCSVMHEALHNHYTQKSLSLSPGK
light: DIVMTQSQKFMSTSVGDRVSITCKASQNVGTAVAWYQQKPGQSPKLLIYSASNRYTGVPDRFTGSGSGTDFTLTISNMQSEDLADYFCQQYSSYPLLTFGAGTNLELKRTVAAPSVFIFPPSDEQLKSGTASVVCLLNNFYPREAKVQWKVDNALQSGNSQESVTEQDSKDSTYSLSSTLTLSKADYEKHKVYACEVTHQGLSSPVTKSFNRGEC
notes: also called 45H6E8 chimeric antibody

EC50 (hCD16A-158F-his protein): 0.32 nM
EC50 (hCD16A-158V-his protein): 0.12 nM
EC50 [1]: 0.73 nM
binding result [2]: no binding (tested: 100 nM)
EC50 (read off the curve) [3]: ~0.4 nM
binding result [4]: no binding (tested: 20 nM)
EC50 (read off the curve) [5]: ~0.5 nM
EC50 (read off the curve) [6]: ~1 nM
EC50 (read off the curve) [7]: ~0.4 nM
B2: P2C47-hIgG1 LALAPG (antibody)
heavy: QVQLVQSGAEVKKPGESLKVSCKASGYTFTSYYMHWVRQAPGQGLEWMGAIEPMYGSTSYAQKFQGRVTMTRDTSTSTVYMELSSLRSEDTAVYYCARGSAYYYDFADYWGQGTLVTVSSASTKGPSVFPLAPSSKSTSGGTAALGCLVKDYFPEPVTVSWNSGALTSGVHTFPAVLQSSGLYSLSSVVTVPSSSLGTQTYICNVNHKPSNTKVDKKVEPKSCDKTHTCPPCPAPEAAGGPSVFLFPPKPKDTLMISRTPEVTCVVVDVSHEDPEVKFNWYVDGVEVHNAKTKPREEQYNSTYRVVSVLTVLHQDWLNGKEYKCKVSNKALGAPIEKTISKAKGQPREPQVYTLPPSREEMTKNQVSLTCLVKGFYPSDIAVEWESNGQPENNYKTTPPVLDSDGSFFLYSKLTVDKSRWQQGNVFSCSVMHEALHNHYTQKSLSLSPGK
light: SYVLTQPSSVSVAPGQTATISCGGHNIGSKNVHWYQQRPGQSPVLVIYQDNKRPSGIPERFSGSNSGNTATLTISGTQAMDEADYYCQVWDNYSVLFGGGTKLTVLGQPKANPTVTLFPPSSEELQANKATLVCLISDFYPGAVTVAWKADGSPVKAGVETTKPSKQSNNKYAASSYLSLTPEQWKSHRSYSCQVTHEGSTVEKTVAPTECS
notes: also called benchmark antibody P2C47

Reference: patent US20260242485A1 (LEPU BIOPHARMA, published 2026)
